We go through 1 substance from paper PMC3946040.

In test [1] the target is AspBHI, modification-dependent restriction endonuclease from Azoarcus sp. BH72 (Azoarcus sp. BH72). The test can be described thus: crystal structure.
For test [2] the target is unchanged. The test is described as follows: SEC.

Turning to “AspBHI, modification-dependent restriction endonuclease from Azoarcus sp. BH72 (enzyme)”, the stoichiometry N in test [1] and in test [2] was 4 each time.
